From article PMC12157784, “Photoelectrochemical Biosensor Based on 1D In2O3 Tube Decorated with 2D ZnIn2S4 Nanosheets for Sensitive PSA Detection”

Target: prostate specific antigen (PSA) (UniProt P07288 25-261)
Test: photoelectrochemical aptasensor (photocurrent decrease); PBS pH 7.4, aptamer immobilised on FTO/In2O3-ZnIn2S4, BSA blocked; linear 0.001-50 ng/mL, LOD 0.00037 ng/mL (not a Kd); PSA incubated 30 min at room temperature on aptamer electrode; 0.01 M PBS pH 7.4 as incubation/wash buffer; photocurrent read in 0.1 M ascorbic acid

Chain of prostate specific antigen (PSA) (P07288 25-261): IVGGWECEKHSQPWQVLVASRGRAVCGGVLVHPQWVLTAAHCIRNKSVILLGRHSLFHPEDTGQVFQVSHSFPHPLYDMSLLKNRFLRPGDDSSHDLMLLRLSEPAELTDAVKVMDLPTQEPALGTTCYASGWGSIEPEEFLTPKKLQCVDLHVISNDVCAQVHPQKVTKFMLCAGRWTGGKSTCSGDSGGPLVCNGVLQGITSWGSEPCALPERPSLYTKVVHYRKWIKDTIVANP

ATTAAAGCTCGCCATCAAATAGC (ssDNA, 5'-NH2-(CH2)6) [PSA aptamer]: binds.
